Experimental data taken from article PMC5963807, “Assembly-hub function of ER-localized SNARE proteins in biogenesis of tombusvirus replication compartment” (PLoS Pathogens, 2018).

T1: FLAG/His6-p33 (Tomato bushy stunt virus, UniProt P15962 1-296)
T1 construct: p33 replication protein of Tomato bushy stunt virus (TBSV); also called FLAG-p33; FLAG-tagged p33; source: yeast, co-expressed, detergent-solubilized membrane fraction; not shown: FLAG, N-terminal, kept; His6, N-terminal, kept
T1 sequence: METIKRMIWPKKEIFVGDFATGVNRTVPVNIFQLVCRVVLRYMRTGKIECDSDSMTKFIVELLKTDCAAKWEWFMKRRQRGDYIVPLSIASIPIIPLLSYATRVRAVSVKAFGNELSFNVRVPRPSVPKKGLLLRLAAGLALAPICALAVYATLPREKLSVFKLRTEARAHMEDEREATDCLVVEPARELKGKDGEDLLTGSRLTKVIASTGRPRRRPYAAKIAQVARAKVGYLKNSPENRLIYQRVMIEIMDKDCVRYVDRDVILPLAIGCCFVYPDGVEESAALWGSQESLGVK

B1: His6-Osh6p (natural protein, yeast (S. cerevisiae), UniProt Q02201 1-448, looked up)
chain: MGSKKLTVGSDSHRLSKSSFSSNKSSHSATKDQPIDTDDIDEDDESGHNIILNIISQLRPGCDLTRITLPTFILEKKSMLERVTNQLQFPEFLLQAHSEKDPLKRFLYVMKWYLAGWHIAPKAVKKPLNPVLGEYFTAYWDLPNKQQAYYISEQTSHHPPECAYFYMIPESSIRVDGVVIPKSRFLGNSSAAMMDGSTVLQFLDIKDGNGKPEKYVLTQPNVYVRGILFGKMRIELGDHMIIKSPNFQADIEFKTKGYVFGTYDAIEGTVKDYDGNAYYEISGKWNDVMYLKDLKQPRSSPKVFLDTHKESPLRPKVRPLSEQGEYESRKLWKKVTDALAVRNHPVATEEKFQIEDHQRQLAKKRIEDGVEFHPKLFRRSKPGEDLDYCIYKNIPVDEDPEKQIRSILQIAPILPGQQFTDKFFIPAFEKIKSQKKMIENEKQNPAKQ
notes: also called 6xHis-tagged Osh6; Osh6 ORP (OSBP1-like); source: yeast, co-expressed, detergent-solubilized membrane fraction; not shown: His6, N-terminal, kept
B2: Cdc34 E2 enzyme (enzyme, yeast (S. cerevisiae), UniProt P14682 1-295, looked up)
chain: MSSRKSTASSLLLRQYRELTDPKKAIPSFHIELEDDSNIFTWNIGVMVLNEDSIYHGGFFKAQMRFPEDFPFSPPQFRFTPAIYHPNVYRDGRLCISILHQSGDPMTDEPDAETWSPVQTVESVLISIVSLLEDPNINSPANVDAAVDYRKNPEQYKQRVKMEVERSKQDIPKGFIMPTSESAYISQSKLDEPESNKDMADNFWYDSDLDDDENGSVILQDDDYDDGNNHIPFEDDDVYNYNDNDDDDERIEFEDDDDDDDDSIDNDSVMDRKQPHKAEDESEDVEDVERVSKKI
notes: Cdc34 ubiquitin-conjugating enzyme of yeast; also called Cdc34 ubiquitin-conjugating enzyme; source: yeast, detergent-solubilized membrane fraction
B3: Vps4p AAA+ ATPase (enzyme, yeast (S. cerevisiae), UniProt P52917 1-437, looked up)
chain: MSTGDFLTKGIELVQKAIDLDTATQYEEAYTAYYNGLDYLMLALKYEKNPKSKDLIRAKFTEYLNRAEQLKKHLESEEANAAKKSPSAGSGSNGGNKKISQEEGEDNGGEDNKKLRGALSSAILSEKPNVKWEDVAGLEGAKEALKEAVILPVKFPHLFKGNRKPTSGILLYGPPGTGKSYLAKAVATEANSTFFSVSSSDLVSKWMGESEKLVKQLFAMARENKPSIIFIDEVDALTGTRGEGESEASRRIKTELLVQMNGVGNDSQGVLVLGATNIPWQLDSAIRRRFERRIYIPLPDLAARTTMFEINVGDTPCVLTKEDYRTLGAMTEGYSGSDIAVVVKDALMQPIRKIQSATHFKDVSTEDDETRKLTPCSPGDDGAIEMSWTDIEADELKEPDLTIKDFLKAIKSTRPTVNEDDLLKQEQFTRDFGQEGN
notes: Vps4p AAA+ ATPase (an ESCRT protein) of yeast; also called Vps4 AAA ATPase; source: yeast, detergent-solubilized membrane fraction
B4: Pbp2 RNA binding protein (natural protein, UniProt P38151 1-413, looked up)
chain: MSTETTKPSITTTPTTVLVSPNTLKRKKGEDTSEEQLEAEIKRVALKDADSHSDNDHDSPDNVPSDVHLRMLCLVKHASLIVGHKGATISRIKSETSARINISNNIRGVPERIVYVRGTCDDVAKAYGMIVRALLEEHGNEDNGEDIEISINLLIPHHLMGCIIGKRGSRLREIEDLSAAKLFASPNQLLLSNDRILTINGVPDAIHIATFYISQTLLNFQMESPQKNVKRSIYYQPTQFNSVLIDHSQPNTIFHQRNHQYHPSDKLLSYKPNKNLPISSTLLSMATPQYTTASVANATAFQPNFVIPNVTVLDGPVISPAPGNHLLMNFVQQEIFIDEKFVGNVIGKDGKHINSVKESTGCSIIIQDPVEGSSERRLTIRGTFMASQAAIMLISNKIEIDRSNAERKRRSPL
notes: source: yeast, detergent-solubilized membrane fraction
B5: Tef1 eEF1A translation elongation factor (natural protein, yeast (S. cerevisiae), UniProt P02994 1-458, looked up)
chain: MGKEKSHINVVVIGHVDSGKSTTTGHLIYKCGGIDKRTIEKFEKEAAELGKGSFKYAWVLDKLKAERERGITIDIALWKFETPKYQVTVIDAPGHRDFIKNMITGTSQADCAILIIAGGVGEFEAGISKDGQTREHALLAFTLGVRQLIVAVNKMDSVKWDESRFQEIVKETSNFIKKVGYNPKTVPFVPISGWNGDNMIEATTNAPWYKGWEKETKAGVVKGKTLLEAIDAIEQPSRPTDKPLRLPLQDVYKIGGIGTVPVGRVETGVIKPGMVVTFAPAGVTTEVKSVEMHHEQLEQGVPGDNVGFNVKNVSVKEIRRGNVCGDAKNDPPKGCASFNATVIVLNHPGQISAGYSPVLDCHTAHIACRFDELLEKNDRRSGKKLEDHPKFLKSGDAALVKFVPSKPMCVEAFSEYPPLGRFAVRDMRQTVAVGVIKSVDKTEKAAKVTKAAQKAAKK
notes: Tef1 eEF1A translation elongation factor of yeast; source: yeast, detergent-solubilized membrane fraction
B6: Pex19p shuttle protein (natural protein, yeast (S. cerevisiae), UniProt Q07418 1-342, looked up)
chain: MNENEYDNFDDLDDLLDEDPTKLDEAEPDDVQAKGSVYNDSENKEKNAESKDSDGVQVANESEEDPELKEMMVDLQNEFANLMKNNGNENNVKTEDFNKLISALEEAAKVPHQQMEQGCSSLKSNSTDKGTVNGSNPGFKNIVSNTLDRLKENGNKVDTSLAEETKESQRSGQNNNIDDILSQLLDQMVASGGKESAENQFDLKDGEMDDAITKILDQMTSKEVLYEPMKEMRSEFGVWFQENGENEEHKEKIGTYKRQFNIVDEIVNIYELKDYDELKHKDRVTELLDELEQLGDSPIRSANSPLKHGNEEEELMKMLEIDGNDPNLGNLDKELTDGCKQQ
notes: Pex19p peroxisome membrane-biogenesis protein of yeast; source: yeast, detergent-solubilized membrane fraction
B7: Rpn11 deubiquitinase (enzyme, yeast (S. cerevisiae), UniProt P43588 1-306, looked up)
chain: MERLQRLMMNSKVGSADTGRDDTKETVYISSIALLKMLKHGRAGVPMEVMGLMLGEFVDDYTVNVVDVFAMPQSGTGVSVEAVDDVFQAKMMDMLKQTGRDQMVVGWYHSHPGFGCWLSSVDVNTQKSFEQLNSRAVAVVVDPIQSVKGKVVIDAFRLIDTGALINNLEPRQTTSNTGLLNKANIQALIHGLNRHYYSLNIDYHKTAKETKMLMNLHKEQWQSGLKMYDYEEKEESNLAATKSMVKIAEQYSKRIEEEKELTEEELKTRYVGRQDPKKHLSETADETLENNIVSVLTAGVNSVAIK
notes: Rpn11 deubiquitinase, co-opted cellular host factor in yeast; source: yeast, detergent-solubilized membrane fraction
B8: Tdh2p (GAPDH) (enzyme, yeast (S. cerevisiae), UniProt P00358 1-332, looked up)
chain: MVRVAINGFGRIGRLVMRIALQRKNVEVVALNDPFISNDYSAYMFKYDSTHGRYAGEVSHDDKHIIVDGHKIATFQERDPANLPWASLNIDIAIDSTGVFKELDTAQKHIDAGAKKVVITAPSSTAPMFVMGVNEEKYTSDLKIVSNASCTTNCLAPLAKVINDAFGIEEGLMTTVHSMTATQKTVDGPSHKDWRGGRTASGNIIPSSTGAAKAVGKVLPELQGKLTGMAFRVPTVDVSVVDLTVKLNKETTYDEIKKVVKAAAEGKLKGVLGYTEDAVVSSDFLGDSNSSIFDAAAGIQLSPKFVKLVSWYDNEYGYSTRVVDLVEHVAKA
notes: Tdh2p glyceraldehyde-3-phosphate dehydrogenase of yeast; also called Tdh2 GAPDH; source: yeast, detergent-solubilized membrane fraction
B9: His6-VAP27-1 (natural protein, UniProt Q8VZ95 1-256, looked up)
chain: MSNIDLIGMSNRDLIGMSNSELLTVEPLDLQFPFELKKQISCSLYLTNKTDNNVAFKVKTTNPKKYCVRPNTGVVLPRSTCEVLVTMQAQKEAPSDMQCKDKFLLQGVIASPGVTAKEVTPEMFSKEAGHRVEETKLRVTYVAPPRPPSPVHEGSEEGSSPRASVSDNGHGSEFSFERFIVDNKAGHQENTSEARALITKLTEEKQSAIQLNNRLQRELDQLRRESKKSQSGGIPFMYVLLVGLIGLILGYIMKRT
notes: VAP27-1, plant ortholog of the yeast Scs2 VAP protein; also called 6xHis-tagged VAP27-1 (Scs2 ortholog); Vap27-1 (Scs2-like); source: yeast, co-expressed, detergent-solubilized membrane fraction; not shown: His6, N-terminal, kept
B10: Vps23p ESCRT factor (natural protein, yeast (S. cerevisiae), UniProt P25604 1-385, looked up)
chain: MSANGKISVPEAVVNWLFKVIQPIYNDGRTTFHDSLALLDNFHSLRPRTRVFTHSDGTPQLLLSIYGTISTGEDGSSPHSIPVIMWVPSMYPVKPPFISINLENFDMNTISSSLPIQEYIDSNGWIALPILHCWDPAAMNLIMVVQELMSLLHEPPQDQAPSLPPKPNTQLQQEQNTPPLPPKPKSPHLKPPLPPPPPPQPASNALDLMDMDNTDISPTNHHEMLQNLQTVVNELYREDVDYVADKILTRQTVMQESIARFHEIIAIDKNHLRAVEQAIEQTMHSLNAQIDVLTANRAKVQQFSSTSHVDDEDVNSIAVAKTDGLNQLYNLVAQDYALTDTIECLSRMLHRGTIPLDTFVKQGRELARQQFLVRWHIQRITSPLS
notes: Vps23p ESCRT-I factor of yeast; also called Vps23 ESCRT I; source: yeast, detergent-solubilized membrane fraction
B11: eIF4AIII-like RH2 DEAD-box helicase (enzyme, UniProt Q94A52 1-408, looked up)
chain: MATANPGRGGGRRGGGAMDDDKLVFETTDGIEPITSFNDMGIKEDVLRGVYEYGFEKPSAIQQRAVMPILQGRDVIAQAQSGTGKTSMIALSVCQVVDTSSREVQALILSPTRELATQTEKTIQAIGLHANIQAHACIGGNSVGEDIRKLEHGVHVVSGTPGRVCDMIKRRSLRTRAIKLLILDESDEMLSRGFKDQIYDVYRYLPPDLQVCLVSATLPHEILEMTSKFMTEPVKILVKRDELTLEGIKQFFVAVEKEEWKFDTLCDLYDTLTITQAVIFCNTKRKVDYLSEKMRSHNFTVSSMHGDMPQKERDAIMNEFRSGDSRVLITTDVWARGIDVQQVSLVINYDLPNNRELYIHRIGRSGRFGRKGVAINFVKSDDIKILRDIEQYYSTQIDEMPMNVADLI
notes: eIF4AIII-like RH2 DEAD-box helicase; source: yeast, detergent-solubilized membrane fraction

What follows are binders tested against T1, FLAG/His6-p33 (assay: co-IP; FLAG-p33 purified from detergent-solubilized membrane fractions of wt yeast and of yeast co-expressing Ufe1ΔTM; co-purified cellular proteins measured by Western blotting; amount from WT yeast taken as 100%). Details: partners not purified.
With B1 the “fold reduction of the co-purified amount in yeast expressing Ufe1ΔTM against wt yeast” value was roughly 3 fold.

Target: T1, FLAG/His6-p33
Assay: as above
Details: partners not purified
Remark: another data set of the same source
With B2 the “percentage of host protein co-purified with p33 from yeast expressing Ufe1ΔTM (WT yeast = 100%)” value was 109 ± 14%. With B3 the “percentage of host protein co-purified with p33 from yeast expressing Ufe1ΔTM (WT yeast = 100%)” value was 44 ± 27%. For B4, the “percentage of host protein co-purified with p33 from yeast expressing Ufe1ΔTM (WT yeast = 100%)” value was 122 ± 15%. In the case of B5, the “percentage of host protein co-purified with p33 from yeast expressing Ufe1ΔTM (WT yeast = 100%)” value is reported as 67 ± 25%. B6 was tested, and the “percentage of host protein co-purified with p33 from yeast expressing Ufe1ΔTM (WT yeast = 100%)” value was 56 ± 13%. With B7 the “percentage of host protein co-purified with p33 from yeast expressing Ufe1ΔTM (WT yeast = 100%)” value was 103 ± 6%. In the case of B8, the “percentage of host protein co-purified with p33 from yeast expressing Ufe1ΔTM (WT yeast = 100%)” value is reported as 64 ± 17%. In the case of B9, the “percentage of host protein co-purified with p33 from yeast expressing Ufe1ΔTM (WT yeast = 100%)” value is reported as 68 ± 30%. For B10, the “percentage of host protein co-purified with p33 from yeast expressing Ufe1ΔTM (WT yeast = 100%)” value was 106 ± 7%. In the case of B1, the “percentage of host protein co-purified with p33 from yeast expressing Ufe1ΔTM (WT yeast = 100%)” value is reported as 59 ± 24%. With B11 the “percentage of host protein co-purified with p33 from yeast expressing Ufe1ΔTM (WT yeast = 100%)” value was 70 ± 18%.

What follows are binders tested against T1, FLAG/His6-p33 (assay: co-IP; viral replicase purified by FLAG affinity from detergent-solubilized membrane fractions of yeasts expressing FLAG-p33, FLAG-p92 and the repRNA; WT yeast or yeast depleted of Ufe1p (GALS::UFE1) or Use1p (GAL1::USE1) on glucose; Western blot with anti-6xHis). Details: partners not purified.
B9 was tested, and the “fold reduction of the co-purified amount in Ufe1p- or Use1p-depleted yeast against WT yeast” value was roughly 5 fold. For B1, the “fold reduction of the co-purified amount in Ufe1p- or Use1p-depleted yeast against WT yeast” value was roughly 7 fold.
